Our source for the Kd values is US20220332804A1 (CSL INNOVATION, published 2022).

Holding throughout (experiment): SPR, antibody captured, C2 as analyte;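 note: biacore at 37 °C, anti-C2 mAbs held by immobilised goat anti-human IgG, C2 alanine or serine mutants injected, double-referenced sensorgrams fitted to a 1:1 kinetic or steady-state model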
On the technique in general: In SPR one partner is held on a chip, and binding of the other changes the refractive index at the surface.

One assay addresses T1, human C2 M452A (human, UniProt P06681 21-752).
T1 sequence: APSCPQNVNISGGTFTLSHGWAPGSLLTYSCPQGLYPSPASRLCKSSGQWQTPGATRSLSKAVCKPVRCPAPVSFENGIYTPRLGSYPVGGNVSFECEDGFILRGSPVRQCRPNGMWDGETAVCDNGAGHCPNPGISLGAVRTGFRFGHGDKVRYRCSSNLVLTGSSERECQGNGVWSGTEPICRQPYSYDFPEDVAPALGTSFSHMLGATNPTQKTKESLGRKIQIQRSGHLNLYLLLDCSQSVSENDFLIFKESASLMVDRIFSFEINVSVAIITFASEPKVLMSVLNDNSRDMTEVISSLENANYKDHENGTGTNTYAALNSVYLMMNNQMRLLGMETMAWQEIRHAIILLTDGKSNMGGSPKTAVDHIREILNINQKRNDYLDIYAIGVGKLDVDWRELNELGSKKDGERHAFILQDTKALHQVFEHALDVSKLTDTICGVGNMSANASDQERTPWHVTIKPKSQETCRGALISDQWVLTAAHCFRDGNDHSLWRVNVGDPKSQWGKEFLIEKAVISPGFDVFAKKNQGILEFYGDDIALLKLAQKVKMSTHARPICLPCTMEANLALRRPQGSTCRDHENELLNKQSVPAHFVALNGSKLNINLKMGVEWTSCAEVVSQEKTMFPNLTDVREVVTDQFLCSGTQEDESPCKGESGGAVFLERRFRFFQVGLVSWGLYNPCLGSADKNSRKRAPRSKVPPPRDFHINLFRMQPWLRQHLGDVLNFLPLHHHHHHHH

Another assay addresses T2, human C2 L453A (human, UniProt P06681 21-752).
T2 sequence: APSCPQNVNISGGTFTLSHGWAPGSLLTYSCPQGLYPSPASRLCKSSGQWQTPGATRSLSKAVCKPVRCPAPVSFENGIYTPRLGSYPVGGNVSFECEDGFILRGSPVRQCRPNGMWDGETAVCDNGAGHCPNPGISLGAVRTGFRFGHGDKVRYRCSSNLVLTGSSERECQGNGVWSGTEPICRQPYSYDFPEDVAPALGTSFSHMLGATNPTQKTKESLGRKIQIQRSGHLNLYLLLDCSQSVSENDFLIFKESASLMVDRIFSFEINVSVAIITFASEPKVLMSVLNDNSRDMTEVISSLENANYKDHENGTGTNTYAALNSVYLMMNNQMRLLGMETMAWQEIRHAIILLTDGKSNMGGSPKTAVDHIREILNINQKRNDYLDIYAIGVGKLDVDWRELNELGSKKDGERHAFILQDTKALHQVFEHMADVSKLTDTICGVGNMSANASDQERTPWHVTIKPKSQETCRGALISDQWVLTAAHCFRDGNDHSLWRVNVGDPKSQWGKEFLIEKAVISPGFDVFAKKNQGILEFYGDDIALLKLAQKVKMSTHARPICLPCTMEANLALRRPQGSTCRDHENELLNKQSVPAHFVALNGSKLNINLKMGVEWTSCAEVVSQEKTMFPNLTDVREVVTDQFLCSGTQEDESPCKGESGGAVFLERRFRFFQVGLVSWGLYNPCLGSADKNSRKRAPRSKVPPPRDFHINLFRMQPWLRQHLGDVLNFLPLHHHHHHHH

The target in the next assay is T3, human C2 D419A (human, UniProt P06681 21-752).
T3 sequence: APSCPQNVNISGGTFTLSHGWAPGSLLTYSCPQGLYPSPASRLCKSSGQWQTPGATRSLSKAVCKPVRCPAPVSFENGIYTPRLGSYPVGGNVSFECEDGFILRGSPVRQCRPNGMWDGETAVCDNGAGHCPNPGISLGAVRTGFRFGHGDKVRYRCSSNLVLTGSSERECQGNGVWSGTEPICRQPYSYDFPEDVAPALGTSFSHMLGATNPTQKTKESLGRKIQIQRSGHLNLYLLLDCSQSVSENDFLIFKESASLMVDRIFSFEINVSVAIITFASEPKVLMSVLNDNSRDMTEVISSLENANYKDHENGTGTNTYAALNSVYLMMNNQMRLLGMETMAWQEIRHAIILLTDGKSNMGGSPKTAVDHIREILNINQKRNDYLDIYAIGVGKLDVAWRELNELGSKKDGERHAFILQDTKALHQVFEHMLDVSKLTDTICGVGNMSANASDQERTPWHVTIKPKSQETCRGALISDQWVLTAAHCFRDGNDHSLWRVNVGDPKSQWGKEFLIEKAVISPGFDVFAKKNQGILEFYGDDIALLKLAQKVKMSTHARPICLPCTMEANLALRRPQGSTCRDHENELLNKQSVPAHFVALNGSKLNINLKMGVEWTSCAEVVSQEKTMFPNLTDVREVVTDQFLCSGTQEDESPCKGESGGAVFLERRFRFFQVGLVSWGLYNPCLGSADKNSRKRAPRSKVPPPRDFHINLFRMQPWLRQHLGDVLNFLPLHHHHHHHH

Another assay has as its target T4, human C2 K244A (human, UniProt P06681 21-752).
T4 sequence: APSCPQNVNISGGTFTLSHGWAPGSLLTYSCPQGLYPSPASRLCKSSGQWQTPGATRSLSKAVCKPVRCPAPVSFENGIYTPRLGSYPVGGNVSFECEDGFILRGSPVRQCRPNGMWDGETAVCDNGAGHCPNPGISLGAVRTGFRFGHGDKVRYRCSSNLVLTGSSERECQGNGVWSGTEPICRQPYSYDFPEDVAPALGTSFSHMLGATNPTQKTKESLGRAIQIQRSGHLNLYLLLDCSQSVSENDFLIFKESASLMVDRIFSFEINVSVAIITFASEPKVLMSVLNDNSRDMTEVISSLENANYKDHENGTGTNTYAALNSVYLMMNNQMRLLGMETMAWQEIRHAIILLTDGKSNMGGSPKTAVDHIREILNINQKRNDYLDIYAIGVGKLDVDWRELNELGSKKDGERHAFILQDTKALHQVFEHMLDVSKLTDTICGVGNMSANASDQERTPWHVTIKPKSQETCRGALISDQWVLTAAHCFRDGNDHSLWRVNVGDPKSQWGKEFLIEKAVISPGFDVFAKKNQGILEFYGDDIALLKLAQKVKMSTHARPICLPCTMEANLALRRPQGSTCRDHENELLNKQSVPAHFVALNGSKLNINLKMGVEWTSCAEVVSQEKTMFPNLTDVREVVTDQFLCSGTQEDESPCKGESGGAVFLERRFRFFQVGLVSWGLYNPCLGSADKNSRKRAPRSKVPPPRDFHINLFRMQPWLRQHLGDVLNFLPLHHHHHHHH

Description for human C2 D419A: (§1) Surface plasmon resonance (SPR, Biacore) was used for all binding affinity analyses. In brief, goat anti-human IgG was directly immobilised onto the carboxymethyl dextran surface of CM5 sensorchips to approximately 12,000 RU using standard NHS/EDC chemistry at pH 5. The immobilised antibody surface was pre-conditioned with ten injections of polyclonal human IgG (Privigen 60 s) prepared at 1 μg/mL. Ligands (anti-C2 mAbs) were captured at the beginning of each cycle as described below. An adjacent spot or flow cell in which only Polyclonal IgG was capture was used as a reference surface. The goat anti-human IgG Fc antibody surface was regenerate in 100 mM H3PO4, injected for 45 seconds at the end of each cycle. Experiments were performed at 37° C. and the flow rate of each experiment was kept constant at 30 μL/min.
(§2) Sensogram data was double-referenced against a reference anti-IgG surface (i.e. minus anti-C2 mAb) and blank buffer injections obtained within each experiment. The binding data was fit to 1:1 (kinetic or steady-state) model using local Rmax and null refraction index (RI=0) when appropriate. Buffers and solutions were filtered (0.22 μm) prior to use.
Description for human C2 K244A: as §1, §2
Description for human C2 L453A: as §1, §2
Description for human C2 M452A: as §1, §2

B1: RF16-242 (antibody, human IgG4 S228P, lambda, V domains shown)
VH: EVQLLQSGAEVKKPGESLKISCKGSGYSFTSYWIGWVRQMPGKGLEWMGIIYPGDSDTRYSPSFQGQVTISADKSISTAYLQWSSLKASDTAMYYCARRGHYGDYFDYWGQGTLVTVSS
VL: SYELTQPPSVSVSPGQTARITCSGDALPKKYAYWYHQKSGQAPVLVIYEDRRRPSEIPERFSGSSSGTMATLTITGAQVEDEGVYFCYSRDRAGNQRVFGGGTQLTVLG
notes: pH-dependent anti-C2 antibody from a phage display library
In general, Kd refers to the concentration at which binding is half-saturated. Higher therefore signals weaker binding. For the molecule B1, the Kd in the assay with human C2 M452A was determined as 5.3 nM; with human C2 L453A, 6.8 nM; with human C2 D419A it was 10.5 nM; with human C2 K244A, 26.2 nM.
